What was measured:
[1] = tested on: AMPK; test: Thr-172 phospho-AMPK immunoblot analysis of DCs; assay type: cell-based, Murine; conditions: Wnt5a 200 ng/mL, 24 and 48 hrs
Description: Data is representative of 3 independent experiments. […] Data is representative of 3 independent experiments. […] Antibodies, Immunoprecipitation, and Immunoblot Analysis: Primary antibodies including CPT1A (Cell signaling), PPAR-γ (Santa Cruz Biotechnology), β-catenin, β-actin (Millipore), p-AMPK(T172)/AMPK (Cell signaling), p-AKT(T308)/Akt (Cell Signaling) were used at 1:1000. Secondary antibodies including goat anti-rabbit IgG-HRP (Millipore) and goat anti-mouse IgG-HRP (Millipore) were used at 1:5000. Cells were lysed in Laemmli sample buffer after treatment and subjected to SDS-polyacrylamide gel electrophoresis and immunoblot analysis. For immunoprecipitation, cells were lysed in radio immunoprecipitation assay (RIPA) buffer [10 mM sodium phosphate (pH 8.0), 150 mM NaCl, 1% Triton X-100, 1% sodium deoxycholate, and 0.1% SDS in the presence of 1 mM DTT, 1 mM phenylmethylsulfonylfluoride, and a protease inhibitor cocktail (Sigma)], precleared with protein A beads, and then incubated with 1 μg of antibody against β-catenin or isotype control IgG with protein A-agarose beads on a rotator overnight at 4° C. After 3 washes with RIPA buffer, immunoprecipitated complexes were eluted in sample buffer by boiling and subjected to immunoblot analysis. Immunoblots were visualized by chemiluminescence substrate (ThermoFisher) and imaged by a ChemiDoc XRSplus system (BioRad).

[2] = tested on: DCs; test: Flow cytometry of DC surface maturation markers; assay type: cell-based, Murine
Description: Flow Cytometry: One million cells were stained with 1 μg per million cells of each fluorochrome conjugated antibodies or commercially available dyes according to the standard protocols and analyzed using a FACSCanto II or LSRII (Becton Dickinson).

[3] = tested on: bone-marrow-derived DCs (BMDCs); test: Extracellular lactate assay (surrogate for glycolysis); assay type: cell-based, Murine; conditions: BMDC culture media, 0 to 48 hr
Description: Lactate measurement: L-Lactate was measured by lactate dehydrogenase conversion of L-lactate+NAD+ to pyruvate+NADH following treatment with […] (Pesce et al., 1975). Lactate standards and samples were read at NADH specific absorbance 340 nm. For lactate measurement in Wnt5a time course, BMDCs were seeded in a 48-well plate at 1 million cell per well. BMDCs were treated with 100 ng/ml of recombinant Wnt5a from 0 to 48 hours. For extracellular lactate determination, 0.5 ml of supernatant media was collected directly from the culture, deproteinized by polyethylene glycol precipitation (25% w/v PEG-8000, sigma), and clarified by centrifugation at 20,000 g for 5 min. […] L-lactate was measured by lactate dehydrogenase (LDH, final 2 U/ml, Sigma) conversion of L-lactate+NAD+(β-Nicotinamide adenine dinucleotide, Sigma) to pyruvate+NADH in Glycine Buffer solution (final concentration Glycine 0.2M, Hydrazine 0.17M to destroy pyruvate allowing reaction to run to complete oxidation of lactate, Chloroform 0.0125%, Sigma). Reaction was incubated at 37° C. for 30 minute (without CO2), L-lactate standards and samples were read at NADH specific absorbance 340 nm (Infinite 200 PRO, Tecan).

[4] = tested on: DCs; test: qRT-PCR / qPCR array / immunoblot gene expression in DCs; assay type: cell-based, Murine
Description: Dendritic Cell Conditioning: DCs were treated with Wnt3a (100 ng/mL), Wnt5a (200 ng/mL), LPS (1 μg/mL), 1-MT (1 mM), 2DG (1 mM), or ETO (100 μM), 2-DG(2-deoxy-d-glucose, 1 mM), Oligomycin (1 μM), succinylacetone (250 μM), […]
Antibodies, Immunoprecipitation, and Immunoblot Analysis: Primary antibodies including CPT1A (Cell signaling), PPAR-γ (Santa Cruz Biotechnology), β-catenin, β-actin (Millipore), p-AMPK(T172)/AMPK (Cell signaling), p-AKT(T308)/Akt (Cell Signaling) were used at 1:1000. Secondary antibodies including goat anti-rabbit IgG-HRP (Millipore) and goat anti-mouse IgG-HRP (Millipore) were used at 1:5000. Cells were lysed in Laemmli sample buffer after treatment and subjected to SDS-polyacrylamide gel electrophoresis and immunoblot analysis. For immunoprecipitation, cells were lysed in radio immunoprecipitation assay (RIPA) buffer [10 mM sodium phosphate (pH 8.0), 150 mM NaCl, 1% Triton X-100, 1% sodium deoxycholate, and 0.1% SDS in the presence of 1 mM DTT, 1 mM phenylmethylsulfonylfluoride, and a protease inhibitor cocktail (Sigma)], precleared with protein A beads, and then incubated with 1 μg of antibody against β-catenin or isotype control IgG with protein A-agarose beads on a rotator overnight at 4° C. After 3 washes with RIPA buffer, immunoprecipitated complexes were eluted in sample buffer by boiling and subjected to immunoblot analysis. Immunoblots were visualized by chemiluminescence substrate (ThermoFisher) and imaged by a ChemiDoc XRSplus system (BioRad).
RNA Isolation, RT-qPCR, qPCR Array: Total RNA was isolated by RNeasy Plus Mini Kit(Qiagen). RNA(500 ng) were used in cDNA Synthesis (iScript, BioRad). Quantification of mRNA for genes involved in PPARγ signaling was performed using Mouse PrimePCR PPAR Array according to the manufacturer's protocol (BioRad). Real-time PCR was performed using an ABI7500 Real-Time PCR system (Life Technologies). Data analysis utilized the PrimePCR Analysis Software (BioRad). Conventional qPCR was performed using validated primers, and SsoAdvanced Universal SYBR Green Super mix (BioRad) or Taqman probes (Applied Biosystems) for heme synthesis enzymes.

[5] = tested on: CD4+FoxP3+ Treg cells; test: In vitro Treg cell assay (conditioned DCs with naive CD4+ T cells); assay type: cell-based, mice; conditions: treated DCs co-cultured with naive CD4+ T cells
Description: Dendritic Cell Conditioning: DCs were treated with Wnt3a (100 ng/mL), Wnt5a (200 ng/mL), LPS (1 μg/mL), 1-MT (1 mM), 2DG (1 mM), or ETO (100 μM), 2-DG(2-deoxy-d-glucose, 1 mM), Oligomycin (1 μM), succinylacetone (250 μM), or vehicle control either for 24 or 48 hrs prior to their use in both in vitro and in vivo experiments.
Treg Cell Assays: For in vivo Treg cell assays, DCs (C57, H-2b) were pre-treated for 48 hours and delivered by intradermal injection into the footpad of Foxp3-mRFP mice. Draining inguinal and popliteal lymph nodes were resected 5 days later and analyzed for CD4+Foxp3+ Treg cells. For in vitro Treg cell assays, DCs (Balb/c, H-2d) were pre-treated for either 24 or 48 hrs, and re-plated at a 1:3 DC:T-cell ratio with purified allogeneic naive Foxp3-mRFP(H-2b) CD44loCD62LhiCD4+ Tcells. These co-cultures were incubated for 6 days and quantitated for CD4+FoxP3+ Treg cells by flow cytometry.

B1: Wnt5a: Recombinant Human/Mouse Wnt5a Protein (R&D Systems) (protein, UniProt P41221 62-380, looked up)
Protein Wnt-5a: IIGAQPLCSQLAGLSQGQKKLCHLYQDHMQYIGEGAKTGIKECQYQFRHRRWNCSTVDNTSVFGRVMQIGSRETAFTYAVSAAGVVNAMSRACREGELSTCGCSRAARPKDLPRDWLWGGCGDNIDYGYRFAKEFVDARERERIHAKGSYESARILMNLHNNEAGRRTVYNLADVACKCHGVSGSCSLKTCWLQLADFRKVGDALKEKYDSAAAMRLNSRGKLVQVNSRFNSPTTQDLVYIDPSPDYCVRNESTGSLGTQGRLCNKTSEGMDGCELMCCGRGYDQFKTVQTERCHCKFHWCCYVKCKKCTEIVDQFVCK
Q: For B1, which “AMPK activation (Thr-172 phospho-AMPK)” value [1] is on record?
A: suppressed AMPK activation

Q: What about the “DC surface maturation markers / co-stimulatory receptors” value [2] of the same molecule?
A: absence of any alterations in DC surface maturation markers

Q: And the lactate production [3]?
A: suppresses lactate production

Q: What about the “IL-6 and IL-12 expression in primary DCs” value ([4]; qRT-PCR) of the same molecule?
A: suppresses IL-6 and IL-12 expression in primary DCs

Q: What about the “expression of Alas1 and further enzymes of PpIX synthesis” value ([4]; qRT-PCR) of the same molecule?
A: upregulated expression of Alas1 and several additional enzymes involved in PpIX synthesis

Q: What about the “expression of TCA cycle enzymes (Idh1, Idh2, Oghd, Dld, Dlst)” value ([4]; qRT-PCR) of the same molecule?
A: stimulated the expression of isocitrate dehydrogenase

Q: And the “expression of hexokinase (Hk) and phosphofructokinase-1 (Pfk1)” value ([4]; qRT-PCR, after 4-8 hr of stimulation)?
A: downregulated the expression of the rate-limiting glycolytic enzymes

Q: What about the “PPAR-γ (Pparg) and CPT1A (Cpt1a) expression” value ([4]; real-time qPCR and immunoblot, murine and human DCs for rWnt5a) of the same molecule?
A: induces upregulation of Pparg and Cpt1a

Q: And the “DC-mediated Treg cell differentiation in vitro” value [5]?
A: enhanced Treg cell differentiation in vitro
